According to paper PMC11860814:

Experiments:
[1] = biological target: Cry1Ia38 protoxin (Bacillus thuringiensis); assay: SEC; Superdex-200 10/300 GL on an ÄKTA Explorer 100; sizes interpolated from protein standards (44-669 kDa); purified proteins loaded
[2] = biological target: Cry1Ia38 protoxin (Bacillus thuringiensis); assay: SDS-PAGE under non-denaturing conditions; SDS-12%PAGE of SEC peak fractions; loading buffer without SDS or β-mercaptoethanol, heated at 50 °C for 3 min to preserve oligomers
[3] = biological target: Cry1Ia gut fluid intermediate (GF-Int) (Bacillus thuringiensis); assay: SEC
[4] = biological target: fully trypsinized Cry1Ia protein (toxin) (Bacillus thuringiensis); assay: SEC; Superdex-200 10/300 GL on an ÄKTA Explorer 100; sizes interpolated from protein standards (44-669 kDa); purified proteins loaded
[5] = biological target: Cry1Ia trypsin intermediate (T-Int) (Bacillus thuringiensis); assay: SEC
[6] = biological target: Cry1Ia trypsin intermediate (T-Int) (Bacillus thuringiensis); assay: SDS-PAGE under non-denaturing conditions; SDS-12%PAGE of SEC peak fractions; loading buffer without SDS or β-mercaptoethanol, heated at 50 °C for 3 min to preserve oligomers

How did the stoichiometry N [1] turn out when Cry1Ia38 protoxin (natural protein) was run?
Its stoichiometry N is 2.

What about the stoichiometry N [2] of the same substance?
Its stoichiometry N is 2.

Which stoichiometry N [3] does the source give for “Cry1Ia gut fluid intermediate (GF-Int) (domain or fragment)” here?
Its stoichiometry N is 2.

With “fully trypsinized Cry1Ia protein (toxin) (domain or fragment)” as the substance, how does the stoichiometry N [4] read?
Its stoichiometry N is 2.

For “Cry1Ia trypsin intermediate (T-Int) (domain or fragment)”, which stoichiometry N [5] is on record?
Its stoichiometry N is 2.

What about the stoichiometry N [6] of the same substance?
The stoichiometry N was 2.
